Laboratory results from article PMC10869706, “Chp1 is a dedicated chaperone at the ribosome that safeguards eEF1A biogenesis” (Nature Communications, 2024).

What was measured:
V5-eEF1A F98C = molecular target: T1, V5-eEF1A F98C (yeast (S. cerevisiae), UniProt P02994 1-458, F98C); assay: co-IP; co-IP of V5-eEF1A variants with Chp1 from yeast lysate (GFP-Trap/V5-Trap; 20 mM Tris pH 7.4, 150 mM NaCl, 2 mM MgCl2, 2 mM EDTA, 5% glycerol, 0.25% NP-40), 2 h at 4 °C, immunoblot, quantified; conditions: partners not purified
T1 construct: eEF1A (Tef2), yeast, with a change that represents a human EEF1A2 polymorphism; source: expressed in yeast cells, in lysate; not shown: V5, N-terminal, kept
T1 sequence (looked up): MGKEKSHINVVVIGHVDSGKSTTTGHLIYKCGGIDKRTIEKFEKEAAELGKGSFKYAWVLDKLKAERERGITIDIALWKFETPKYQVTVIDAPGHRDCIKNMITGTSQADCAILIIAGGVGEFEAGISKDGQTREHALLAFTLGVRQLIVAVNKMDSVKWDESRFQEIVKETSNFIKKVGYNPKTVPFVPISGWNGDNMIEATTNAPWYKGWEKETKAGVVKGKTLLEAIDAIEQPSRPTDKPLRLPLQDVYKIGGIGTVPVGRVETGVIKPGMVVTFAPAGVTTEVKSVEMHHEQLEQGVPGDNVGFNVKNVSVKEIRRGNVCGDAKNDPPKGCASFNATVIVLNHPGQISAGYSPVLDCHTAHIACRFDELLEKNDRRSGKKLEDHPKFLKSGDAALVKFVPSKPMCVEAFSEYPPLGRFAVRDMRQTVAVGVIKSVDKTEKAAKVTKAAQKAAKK

V5-eEF1A M102V = molecular target: T2, V5-eEF1A M102V (yeast (S. cerevisiae), UniProt P02994 1-458, M102V); assay: as above; conditions: partners not purified
T2 construct: eEF1A (Tef2), yeast, with a change that represents a human EEF1A2 polymorphism; source: expressed in yeast cells, in lysate; not shown: V5, N-terminal, kept
T2 sequence (looked up): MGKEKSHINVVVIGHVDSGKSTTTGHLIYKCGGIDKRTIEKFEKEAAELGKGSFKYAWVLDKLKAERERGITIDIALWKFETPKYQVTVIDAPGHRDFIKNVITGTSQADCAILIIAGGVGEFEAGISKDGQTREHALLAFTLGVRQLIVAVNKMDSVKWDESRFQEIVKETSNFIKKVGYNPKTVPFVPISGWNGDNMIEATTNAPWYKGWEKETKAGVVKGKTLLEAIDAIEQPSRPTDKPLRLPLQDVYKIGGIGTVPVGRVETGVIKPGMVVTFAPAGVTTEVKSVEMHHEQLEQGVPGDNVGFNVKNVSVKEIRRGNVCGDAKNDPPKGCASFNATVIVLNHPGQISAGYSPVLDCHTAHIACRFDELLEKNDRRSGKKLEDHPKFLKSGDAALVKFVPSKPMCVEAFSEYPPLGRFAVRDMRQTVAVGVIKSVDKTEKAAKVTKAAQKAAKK

- fold increase in Chp1 binding (against WT eEF1A) (V5-eEF1A F98C): 3 fold
- fold increase in Chp1 binding (against WT eEF1A) (V5-eEF1A M102V): 3 fold
B1: Chp1 (in yeast cells expressing V5-eEF1A) (natural protein, yeast (S. cerevisiae), UniProt Q08971 1-146, looked up)
chain: MSTFNAETADNLEDIEKQFAVVAVEQAETYWKLLTSVPGSKLRLTKFDDEIYENFMERFPEYKDVERVKKFTEEELKTKEAKERWRKFFTIFEKKIEDYNFGTLLRTDASAEYGQFTTCFVVRLQFYAFEIARNKHGLNDWIVGQK
notes: Chp1 (ORF YPL225w), yeast; source: yeast cells, in lysate
